Laboratory results taken from patent publication US20140287990A1 (published 2014).

B1: azurin from Pseudomonas aeruginosa (other)
chain: AECSVDIQGNDQMQFNTNAITVDKSCKQFTVNLSHPGNLPKNVMGHNWVLSTAADMQGVVTDGMASGLDKDYLKPDDSRVIAHTKLIGSGEKDSVTFDVSKLKEGEQYMFFCTFPGHSALMKGTLTLK
notes: Recombinant cupredoxin (copper protein) expressed in E. coli JM109 from pUC19-paz; also called wt azurin; wt-azurin
B3: Laz from Neisseria gonorrhoeae F62 (other)
chain: CSQEPAAPAAEATPAGEAPASEAPAAEAAPADAAEAPAAGNCAATVESNDNMQFNTKDIQVSKACKEFTITLKHTGTQPKASMGHNLVIAKAEDMDGVFKDGVGAADTDYVKPDDARVVAHTKLIGGGEESSLTLDPAKLADGDYKFACTFPGHGALMNGKVTLVD
notes: also called Neisserial Laz protein
B5: DC-SIGN (DC-specific intercellular adhesion molecule 3-grabbing nonintegrin) (receptor, UniProt Q9NNX6 62-404, looked up)
chain: KVPSSISQEQSRQDAIYQNLTQLKAAVGELSEKSKLQEIYQELTQLKAAVGELPEKSKLQEIYQELTRLKAAVGELPEKSKLQEIYQELTWLKAAVGELPEKSKMQEIYQELTRLKAAVGELPEKSKQQEIYQELTRLKAAVGELPEKSKQQEIYQELTRLKAAVGELPEKSKQQEIYQELTQLKAAVERLCHPCPWEWTFFQGNCYFMSNSQRNWHDSITACKEVGAQLVVIKSAEEQNFLQLQSSRSNRFTWMGLSDLNQEGTWQWVDGSPLLPSFKQYWNRGEPNNVGEEDCAEFSGNGWNDDKCNLAKFWICKKSAASCSRDEEQFLSPAPATPNPPPA
notes: Immobilised on a CM5 sensor chip
B6: Pf MSP1-19, C-terminal fragment of the P. falciparum merozoite surface protein MSP1 (other)
chain: NISQHQCVKKQCPENSGCFRHLDEREECKCLLNYKQEGDKCVENPNPTCNENNGGCDADATCTEEDSGSSRKKITCECTKPDSYPLFDGIFCS
notes: domain: MSP1-19; Immobilised on CM5 sensor chips

Legend:
CD4 [1] = biological target: T1, CD4 (UniProt P01730 26-396); experiment: SPR, CD4 immobilised on CM5 (CD4-CM5), equilibrium response fitted to Req=Rmax/(1+(Kd/C))
T1 construct: Bought protein; Used both immobilised on CM5 and as eluent

[2] = biological target: B5; experiment: SPR, DC-SIGN immobilised on CM5, proteins injected at 0-100 nM, equilibrium response fitted to Req=Rmax/(1+(Kd/C))
HIV-1 gag = HIV-1 gag (HIV-1, UniProt P04591 1-500); experiment: SPR, azurin immobilised on CM5 (target taken from the preceding sentence)
HIV-1 nef = biological target: T2, HIV-1 nef (HIV-1, UniProt P04601 1-206); experiment: as above
T2 sequence: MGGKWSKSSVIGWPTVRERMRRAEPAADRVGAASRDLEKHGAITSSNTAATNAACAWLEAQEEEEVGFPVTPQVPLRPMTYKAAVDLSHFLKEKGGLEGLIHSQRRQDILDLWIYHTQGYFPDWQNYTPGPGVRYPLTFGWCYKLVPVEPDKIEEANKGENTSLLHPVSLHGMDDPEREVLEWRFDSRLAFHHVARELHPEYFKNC

[3] = biological target: T3, Pf MSP1-42, C-terminal fragment of the P. falciparum merozoite surface protein MSP1 (Plasmodium falciparum, UniProt Q8I0U8 1327-1699); experiment: SPR (Biacore X), MSP1-42 immobilised on CM5, equilibrium response fitted to Req=Rmax/(1+(Kd/C))
T3 construct: domain: MSP1-42; Immobilised on CM5 sensor chips
T3 sequence: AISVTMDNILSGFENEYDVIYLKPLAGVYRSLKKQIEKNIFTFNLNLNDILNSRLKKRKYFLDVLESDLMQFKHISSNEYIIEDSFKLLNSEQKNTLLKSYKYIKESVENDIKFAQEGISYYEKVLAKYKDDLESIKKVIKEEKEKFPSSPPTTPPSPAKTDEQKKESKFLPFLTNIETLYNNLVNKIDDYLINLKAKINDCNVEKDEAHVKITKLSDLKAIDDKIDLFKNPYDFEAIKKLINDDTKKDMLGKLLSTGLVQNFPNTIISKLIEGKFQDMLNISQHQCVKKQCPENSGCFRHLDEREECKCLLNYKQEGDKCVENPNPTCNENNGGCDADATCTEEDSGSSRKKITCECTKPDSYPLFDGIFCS

HIV-1 gp41 = HIV-1 gp41 (HIV-1, UniProt P04578 512-684); experiment: SPR, azurin immobilised on CM5
ICAM-1 = ICAM-1 (UniProt P05362 28-480); experiment: SPR, azurin immobilised on CM5
ICAM-2 = biological target: T4, ICAM-2 (UniProt P13598 25-223); experiment: SPR, azurin immobilised on CM5
T4 sequence: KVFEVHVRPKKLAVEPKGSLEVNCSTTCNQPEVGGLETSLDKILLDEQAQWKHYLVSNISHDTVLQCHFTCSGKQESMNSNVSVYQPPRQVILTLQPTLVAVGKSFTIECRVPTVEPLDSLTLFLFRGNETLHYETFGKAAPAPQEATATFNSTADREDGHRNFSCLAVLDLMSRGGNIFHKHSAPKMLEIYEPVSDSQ

NCAM = biological target: T5, NCAM (UniProt P13591 20-718); experiment: SPR, azurin immobilised on CM5, 1 mg/ml CM5 (carboxymethyldextran) in HBS-EP running buffer
T5 construct: also called Neural Cell Adhesion Molecule

ICAM-3 [4] = biological target: T6, ICAM-3 (UniProt P32942 30-485, limits assumed); experiment: as above
T6 sequence (looked up): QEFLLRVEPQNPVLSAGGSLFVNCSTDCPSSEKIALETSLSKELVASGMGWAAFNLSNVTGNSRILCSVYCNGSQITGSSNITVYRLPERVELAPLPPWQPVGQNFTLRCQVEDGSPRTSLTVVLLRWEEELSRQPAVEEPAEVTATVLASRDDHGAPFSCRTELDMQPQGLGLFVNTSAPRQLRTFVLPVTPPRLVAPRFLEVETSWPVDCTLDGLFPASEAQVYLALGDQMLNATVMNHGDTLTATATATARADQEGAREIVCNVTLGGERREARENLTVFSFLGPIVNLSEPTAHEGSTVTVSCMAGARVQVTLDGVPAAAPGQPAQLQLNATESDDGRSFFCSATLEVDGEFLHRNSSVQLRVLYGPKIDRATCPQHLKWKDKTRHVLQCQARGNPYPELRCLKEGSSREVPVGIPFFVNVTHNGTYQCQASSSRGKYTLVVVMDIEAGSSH

CD4 [5] = biological target: T1, CD4; experiment: SPR, azurin immobilised on CM5 (Az-CM5), 1 mg/ml CM5 in HBS-EP running buffer
[6] = biological target: B6; experiment: SPR, MSP1-19 immobilised on CM5
[7] = biological target: B6; experiment: SPR (Biacore X), MSP1-19 immobilised on CM5, equilibrium response fitted to Req=Rmax/(1+(Kd/C))
ICAM-3 [8] = biological target: T6, ICAM-3; experiment: SPR, DC-SIGN immobilised on CM5, proteins injected at 0-100 nM, equilibrium response fitted to Req=Rmax/(1+(Kd/C))
[9] = biological target: GST-Azu 88-113 (GST fused in frame to azurin amino acids 88 to 113) (Pseudomonas aeruginosa, UniProt P08515 1-218 = GST); experiment: SPR, MSP1-19 immobilised on CM5, GST-Azu fusion series
[10] = biological target: T7, GST-Azu 36-89 (GST fused in frame to azurin amino acids 36 to 89) (Pseudomonas aeruginosa, UniProt P08515 1-218 = GST); experiment: SPR, MSP1-19 immobilised on CM5
T7 construct: also called pGST-azu 36-89 product

[11] = biological target: T8, GST-Azu 36-128 (GST fused in frame to azurin amino acids 36 to 128) (Pseudomonas aeruginosa, UniProt P08515 1-218 = GST); experiment: SPR, MSP1-19 immobilised on CM5
T8 construct: Azurin fragment cloned into the BamHI and EcoRI sites of pGEX-5X

[12] = biological target: T9, glutathione S-transferase (GST) (UniProt P08515 1-218 = GST); experiment: SPR, MSP1-19 immobilised on CM5
T9 construct: Control protein in the SPR experiments

[13] = biological target: B3; experiment: SPR (Biacore X), MSP1-19 immobilised on CM5, equilibrium response fitted to Req=Rmax/(1+(Kd/C))
[14] = biological target: B1; experiment: as above

ICAM-1, sequence (P05362 28-480 limits assumed): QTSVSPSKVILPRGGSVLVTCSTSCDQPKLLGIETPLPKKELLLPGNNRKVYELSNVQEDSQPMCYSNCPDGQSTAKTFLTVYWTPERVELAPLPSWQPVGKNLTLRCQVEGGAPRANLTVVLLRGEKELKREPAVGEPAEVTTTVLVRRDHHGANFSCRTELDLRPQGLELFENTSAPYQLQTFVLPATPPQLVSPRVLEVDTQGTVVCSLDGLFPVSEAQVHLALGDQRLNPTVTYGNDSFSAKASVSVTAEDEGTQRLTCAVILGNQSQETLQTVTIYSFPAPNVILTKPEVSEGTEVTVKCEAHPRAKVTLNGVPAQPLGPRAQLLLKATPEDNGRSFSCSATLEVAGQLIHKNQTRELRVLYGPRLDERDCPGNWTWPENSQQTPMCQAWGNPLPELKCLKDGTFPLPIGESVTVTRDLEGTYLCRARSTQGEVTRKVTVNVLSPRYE
T7 sequence (P08515 1-218, tags or fused parts left off): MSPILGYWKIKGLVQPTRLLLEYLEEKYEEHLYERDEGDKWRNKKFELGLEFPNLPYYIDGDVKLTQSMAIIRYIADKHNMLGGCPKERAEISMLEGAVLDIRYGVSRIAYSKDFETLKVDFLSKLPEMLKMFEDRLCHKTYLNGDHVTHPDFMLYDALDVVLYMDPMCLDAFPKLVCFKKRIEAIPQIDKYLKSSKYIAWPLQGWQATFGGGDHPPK
T9 sequence (P08515 whole entry): as the sequence (P08515 1-218, tags or fused parts left off) above
GST-Azu 88-113 (GST fused in frame to azurin amino acids 88 to 113), sequence (P08515 1-218, tags left off): as the sequence (P08515 1-218, tags or fused parts left off) above

B1
Kd (CD4 [1]): 36.9 nM
Kd [2]: 0.83 nM
binding result (HIV-1 gag): no binding
binding result (HIV-1 nef): no binding
Kd [3]: 54.3 nM
binding result (HIV-1 gp41): no binding
binding result (ICAM-1): no binding
binding result (ICAM-2): no binding
Kd (NCAM): 20 nM
Kd (ICAM-3 [4]): 19.5 nM
Kd (CD4 [5]): 25.1 nM

B2: H.8-GST (H.8 epitope fused in the N-terminal of GST) (other)
chain: CSQEPAAPAAEATPAGEAPASEAPAAEAAPADAAEAPAA
notes: not shown: glutathione S-transferase (GST) of the commercial pGEX-5X-3 / pET29a-gst vectors
binding result [6]: no binding (tested: 0.05-300 nM (FIG. 7 legend))

B3
Kd [3]: 45.6 nM

B4: H.8-azurin (H.8 epitope of Laz fused in frame to the N-terminal part of P. aeruginosa azurin) (other)
chain: CSQEPAAPAAEATPAGEAPASEAPAAEAAPADAAEAPAAAECSVDIQGNDQMQFNTNAITVDKSCKQFTVNLSHPGNLPKNVMGHNWVLSTAADMQGVVTDGMASGLDKDYLKPDDSRVIAHTKLIGSGEKDSVTFDVSKLKEGEQYMFFCTFPGHSALMKGTLTLK
notes: also called H.8-Paz; H.8-paz
Kd [7]: 11.8 nM
Kd [3]: 14.3 nM

B5
Kd (ICAM-3 [8]): 0.93 nM

B6
binding result [9]: no binding
Kd [10]: 20.9 nM
Kd [11]: 24.5 nM
binding result [12]: no binding (tested: 0.05-300 nM (FIG. 7 legend))
Kd [13]: 26.2 nM
Kd [14]: 32.2 nM
